# Laboratory results reported in the DeepSol protein solubility set.
# Experiment: soluble on expression in E. coli; label from the status in PepcDB or PDB records
row,Sequence,soluble on expression in E. coli
1,MAHHHHHHMFSSHKTPAKAQRDGYDDEQHLVAAVSEFKKVEASNQSMVDQLHQRLASPFQITAKPCEAGRAAVLQCYQQLQSSSAVTTSNAASSTSPAPPPGARSDSKSAKVAPAEAWLSIPYQQCYETALAYHQCVEDTLAKHLALVAAFEQCGTQQKIAHQSAMKAQDKPQ,soluble
2,MAHHHHHHMGDESNAIGQEALLYDKMFRVMRTVGEMMCDRKYQVADKIIPSSVEEFKDWYTDPREGVIYRDRMTVPCERIGVSQRSRAMVFFSEGLSMETMKRYHTQASEANCDRVIIVVQGRINAIVKRHVEDINRSSLGLKIQLFDEDDLVVNITHHELVPKHTQLEDEEVKEMLQAHALELSALPRILSTDPVAAYLGLERGRVVRIERKSMSAGFYVTYRQVV,not soluble
3,MAHHHHHHMGGCVVSLMECKARSNEVPWELSEDVKSYGPLSVAVAGTQTPNSSAVYVNGKQSTLAAQQECGKQFYYGPNQPQRFAKLCQENLDSVALAYRRIEKMEKEQVAGASRPMDVAYFSEQCNLTYRELWHAVTGFSRGLAELGLEKRVNVTIYEETRWEWLASIYGIWMQDMVAATVYANLGEGALFHALRETECKAILCNGKSVPNLLRGVGSGAFPACTLIYLDNLPVAGCAELHGCRVVSWKDVVALGHGAGAHHGAAPPEDNESVALIMYTSGTTGDPKGVMHTHGSIVAGILTMDDWLYSVIKHRPDDVYLSYLPMAHIMEFGVVNILLARRAHVAFGTPRTLTDATARPHGDFTHFRPTLLIGVPRIFDTLKKAVEAKLPPVGTLKRQVFDHAYQSRLAALKEGKDTPFWNEKVFSQPRAALGGRVRAFLSGGGPLSETTQEFVNVVFGCIVNGWGLTETVCIGAIQRLGDLTPSAVGQVLCSEQLKLRDIDEYKHTDTPYPRGEICLRGPFLFKGYYKQPELTREVLDEDGWFHTGDVGSIDCEGRVSIVGRIKALAKNCLGEYIALEVLEAVYSSHPLVLHNCVCVLVDPCKNYICALVLTDESHVMRFAKANGIEGEYPSLLEKKELLEKAAASMAETARAARRRDFEVVRRVSLIDDEWSPEKGQLTAALKLRRGAIAKQYEKQITCLFAE,not soluble
4,MAHHHHHHMGGVRGGRNKSHKLPVKFMAAAKQELVNSRLTLQEELLHSAFDDHSAYRMRITGLKQQNLDLSFTVSELEEQVRDLYTYIHEKRFARQVDEQGNEIAVMTPRPRGVPLALQTELGIDLRHSTANILSELSTLSINMKHQLNSALLRARQLHTLSAWLDEGNETSVSGGGVGGMLERVSEAAAIPVFPVSAWPSIPHFLRTFIAPDVPNYFWTETQAACILYNFFKRYKAIRRRARFVRDNKMLAPRVYQLFEHREVLLTRLDAGKEDVAAAEENTPFGYVVTQFAREVLANLSPQNTQPHLPLVLPGTVALRFPQTSSTPSQSKSLQSGERRG,not soluble
5,MAHHHHHHMGGVTLHKVNTCPWWQRKNYEIEKSFFLRSAPPPLRKKRNQLRQYNHAENNSYTNIYTIKNPLKCKVVDKVSLVRQNALHEVYNVEIDHGGMFKYLEGHSCGVIPYYEDLIQADDKNNSQEGRKKRGNKFARLYSISSTNAENLSFAIRIHSYQEEENGCMQHKYGYCSGYIKELKKNDNIYITGAHGCFLLPDNVSEKNTNLILIATGTGISPYISFLKKIWGYQPGIHQQKKTYNGQVYLYYGVYYEDSILYLPELKYFQNMYPNNFHVEYVFSSIKNSDGTSHHVQDEIYKKRENFLRLFNELNCELYICGHKSIRAKIMDILKGENPVLDSEKKKRVHVEVY,not soluble
6,MAHHHHHHMGLMLPKPILSKVVDRAGNSFVNAACASQNGFRNSMEDAHMLVATDDADVAYFGIFDGHSNAECSAYVARELPQRLKKLPESITAEMLEKVCIEVDEAYMKTSTEGGTTGTFCVIRKDLTVTIANVGDSRILVCRGGKLIFATEDHKPYIPGETERIVACGGSVVSNRVDGDLAVSRAFGDASFKVKGTKDYRMQKVIAVPDVSVLQCEPNDFIILACDGVFEGNFSNEDVCQFVWEQQQNCWDDLAVVACRVCDEAIRCGSKDNISCLVVQLAEGASRVKAFGATSFVPGPPFPRNQQPCRAAYAQMAELGHTTTAAALQTRYQLLQAFSKNKLNSQPPVMRTAFEMSDEVDVETEWSFFGKGPAPGNEKNFFEALANTGNSS,soluble
7,MAHHHHHHMGLVSSKHAGGGDGKPLSLDVISSRPKLEPHEVSLLQLTPHGVYATLAAHVYCAAAPETAMQVPLPDGWEVLLQCSSLHLDKEGYFAVAYVHRGSRHCIISERGTSEVLGLRAGIWMYFEQPTIQFFLAEQFSKAVRHKLKVMDKVCSGSWFVSYTGHSLGAVIAGCRAVMEGTLAVTFESPGARVFIEKTLDASSGTDEHLITYLRAPNPINTLKPQCGYVIMIPTQQVVLPSGTLFLAPSNPAAAEDDDEDERQSPRSGSGNRASRKPSKVPLSSTSSTNPSGCAGLVAASVTTAASTGTTAAATLAARSPTPPSVPASNSNNSGPGAAVASAPARWRIPSFRPQEYLRGYLFGGVGMGVPELQQYVGKVEPMIREMLEHTQQVHSIHSLRSHFQKSDEPGDEEVVLRWPSHLLQFMEFYNTTRALEDPENQDAGVKEAYLGLMRRLYYTEPRRRDCIPTKYLDPRSLLLVRMWWSMDAAQRKQWPLSLMDHKALNVIQIKDRYLCSYVMTAMQAKQYLMRLVARPEMRAMIDQWRRERNDGSTGAGSPQRSKL,not soluble
8,MAHHHHHHMGQSKTKLQVVMCGLDNSGKTTIINQVKPAQSSSKHITATVGYNVETFEKGRVAFTVFDMGGAKKFRGLWETYYDNIDAVIFVVDSSDHLRLCVVKSEIQAMLKHEDIRRELPGGGRVPFLFFANKMDAAGAKTAAELVEILDLTTLMGDHPFVIFASNALKGTGVHEGFSWLQETASRQSGKAGTKRG,soluble
9,MAHHHHHHMGTLEAQTQGPGSMLKSVGVILVLSSPSGCGKTTVANKLLEKQKNNIVKSVSVTTRAARKGEKEGKDYYFVDREEFLRLCSNGEIIEHAEVFGNFYGVPRKNLEDNVDKGVSTLLVIDWQGAFKFMEMMREHVVSIFIMPPSMEELRRRLCGRRADDSEVVEARLKGAAFEISHCEAYDYVIVNEDIEETADRISNILRAEQMKTCRQVGLRELLESRFPIED,soluble
10,MAHHHHHHMGTLEAQTQGPGSMLNKRKFYINGLWDDPSTPHDLYVIDPSTEEACAVISLGSTRDADKAINAAKKAFQTWKTTSPHERLGFVEKILEIYEKRSSDMAKTISMEMGAPIDMALNAQTATGSSHIRNFIKAYKEFSFQEALIEGNEQAILHYDAIGVVGLITPWNWPMNQVTLKVIPALLAGCTMVLKPSEIAPLSAMLFAEILDEAALPSGVFNLINGDGANVGSYLSAHPDLEMISFTGSTRAGKDISKNASNTLKRVCLELGGKGANIIFADADIDALQRGVRHCFYNSGQSCNAPTRMLVEQAIYDKAIKTAKDIAEKTQVGPGHQTGNHIGPVVSKEQYDKIQDLIQSGIDEGATLVTGGTGLPMGMERGYYVRPTVFADVKPHMRIFREEIFGPVLSLLPFNTEDEAVTLANDTEYGLTNYIQSQDRSKCRRIAAQVRSGMVEVNGHELPGGSYFGGVKFSGRAREGGLWGIKEFLDTKAISYW,soluble
11,MAHHHHHHMGTLEAQTQGPGSMVNWNALRSKAIEVSRHAYAPYSGFPVGAAALVDDGRTVTGCNVENVSYGLGLCAECAVVCALHSGGGGRLVALSCVGPDGGVLMPCGRCRQVLLEHGGPELLIDHAHGPRPLRELLPDAFGPDDLGRR,soluble
12,MAHHHHHHMGVCLASLMVRRSRISEVPDRYIEERRRYGPVAVACAPPEDDVSSAVYRAAGITDEEHRRICKEWYEGENIVHRLEEICAERSDRRALAYRTVQKVETEKKTDSKGHTRNWEVTYLNDPTYMTYNEFWSRLIAFGKGLRELGLAEGAAVAIAEDVRWEWLASVLAGWTQGLISVTVYANLGEAALLHALKEAECPALICNGNAVKKLVPLLHKAKLNNTMVIYLDALPAGVDAEGMMLLSWTDVLQKGLQSCFSYTIPSDCNRTALIMYTSGTVAEPKGVIHTFGSLKTGAAALEDRLTELLGPKEEGETYLAYLPLAHILEFITEMIMLNRGSLLCYGSPRTLSDMSARPRGDLAEFRPMMFVGVPRIFETIRKNVESQLPPVGSVKRSIFDAAYAARLRAIEDGKDTPF,soluble
13,MAHHHHHHMHNGVKTFHRVGFVGSKWKEVKNRGIARFIEAFAADTATALNVTPQAVHIADYAVADDIVVDFYVTHPGTDSAEVIDGKLEQFDYQRVWDLYGIPSEVDEQQRVVPCVMKCSNASRRTSPSSTCRLRMPDTNSVSQVDSFCPRCQRRLSSKQEFLQPDESSGWHPQPMHSHTSSISDAVRTALMEDSYSAIRKPSSTPPLPHLAHRYAPHQKWKGKLRSSRARIKRVVYHSCASHR,not soluble
14,MAHHHHHHMIERTDVVTGTETQEGSTVPQEARQFLQIIATMQSESEERARIIGELRYRKLLVEEERDKNFMEREAVVAKLADARAQLLQLDVEHRELQKRQRSSESEILENSRQSQRCRTLLSTCRGDLTVHPMVPNSASELAAEATAAGTSSAAHNAYTEEAKWLKHLFITYGQLYNGTDFLQELRVSMKNLYVEVSKETHNTVQRNLSDWEATCLQSLPHLTADERTLLHFQLMLHPFV,not soluble
15,MAHHHHHHMIPRYDGLVPAIRGPASACAVASVNATPSSTTKRTAAATTVARYVICPVETTGTENAHVNATAERERRLFAFLPSVDCAAPPRELRVSSHYFEDALVASVASSDAESGEDLDEGEESHTSTARRGNTREDGAHGSNSGSRKRRRARRREPMRLEYDGFLAPATEATKRVRLVSTPASEYSHLTCVLLQLPTAWREQDMDEGEGHGRTACVSSSSTSKPLITSMPLRRPILQLWGERNTAAAGPNDGSLCTGSSAASISAAWGSDTRLQISKKDWKTMDAAEEDLHKPTNWSDDDGGDASDEGRGKSASGADDAISARARKREREEATSIAVRSFLAGTKEALRQQGAVGAADGFAQPQPAVRSDNAAPVSARVETSAPVKAAAKRATVTVPLSSGSSGSRVRSSVATPAVPPTHALTTNSAAPLPSSGVAPPDGSASLDSLACTVVTGMLSSEARRAATLMELQKRILKQLPEFATMSQKMKSTATKQEAVAWFQTSQQALRAWLVEHGHTIDSDGTVTFGDA,not soluble
16,MAHHHHHHMITGGSEKLLTKDSVAQYIRRVSSGLLYESAVLPIQFLIRGFRDIVPCEALASLGEQEMMSLLCGCRANDKKPLWTLAEIKSILVAEHGYQTDSPQMTMLQNILANRLTPAEQRSFLLFCTGCPRLPVGGVGALGAITVVKRSDFTMFHGSSGRNSGGSDGIGGADRKEQNPKQPGEWNSLPNETDWPLPSVNTCFRYLKLPPYPTEDLMYKKLRLSIMQGGETFQLS,not soluble
17,MAHHHHHHMITMECITKKIKTIFQNSIQKCFPSISEDAIVTYANLKFGHYQCNNAINIYKKYGKELNYENAQKISEFIISNINETIFEEIKSSPQGFITVKLSKDYIETSLKKLFNGEKIDISININDIKESNENYGNVLVDFSSPNIAKEMHVGHLRSTIIGDSICRVFEFLKINTHRVNHVGDWGTQFGMIINYIKTHYPNFKEEMPDLSNLTSLYQESKKMYDADKEFEKSSKENAIKLQNNDEDCKFVWNKLCESSKKEFDKLYNILDIKLEYVGESFYVPMLSTVLDLLKESKLLTNIGDAICYQSENFKVPLFLQKSNGGYGYDSTDVAALYYRLTQLNCNCVIYVTDIGQLTHFETIFDLIKKTNWGDKNAKLMHVGFGFVLNEDNKKFKTRSGTTVKLINLIKEGTERAKRDLLQRIETKSEEEKSYFENVDIDQLSESLCVSAIKYFDLKQHRNSDYKFSYDNMLNVKGNTGIYIIYGYSRICSIFRKSTINVEDISKDELSLTSIYEINLGLHILKFPDIFYYILKNMLVHKLAEYMYDLTTTFTAFYENCKVLNNENEKSRLLLCSITKSLLKLCMELLGMKPIEKL,soluble
18,MAHHHHHHMKAVSIRQVSAIIILDNNGKRIAVKYYNDQAPLKGENKLVPKNTNKDLVSNAFENTYNNLRTVEDQKLFESDITEKARKLGGDSSETEVLVLNKFTILYLLINDVSIYIVGEESDNEIILHEIMQTVQQCLDNVTNNQIGKKQLLDKLDSIYLILDEIADSGIIMETNPNVIINRLYMHESDLQEHTPLNQAISSAKENIIRSLLSGT,not soluble
